9 substances from patent US20240294573A1, “CONSTRAINED PEPTIDES” (TearSolutions, Inc., priority 2019, published 2024) can be followed below.

Holding throughout (type): physicochemical
Series [1] in a line: Circular dichroism of alkene constrained (stapled) Lacripep acetate salts in citrate buffer (Example 7). The following applies: 10 mM sodium citrate buffer pH 6.5, 0.2 mg/mL, 35° C. Here is the method:
Alkene Constrained Analogs of Lacripep™ (SEQ ID NO:1) were synthesized with N-terminal acetylation and C-terminal amidation as an acetate salt. The compounds were reconstituted in 10 mM sodium citrate buffer, pH 6.5 for circular dichroism, with or without 10 mM n-DodecylPhosphoCholine (DPC). The resulting citric acid buffered solutions were tested for circular dichroism.
(§1) CD spectra were obtained using the Jasco 810 CD/ORD with Fluorescence Monochrometer in a 1 mm quartz cell from Starna Cells, Inc. Spectra were obtained at 35° C. from 250 nm to 190 nm in continuous scanning mode (scanning speed, 100 nm/min; data pitch, 0.1 nm; bandwidth, 1 nm; response time, 4 s) with a nitrogen flow rate of 100 mL/min. An average of 3 spectra were obtained for each sample (N=3).

Series [2] is described as follows: Circular dichroism of cysteine disulfide constrained Lacripep acetate salts in citrate buffer (Example 8). The settings on record: 10 mM sodium citrate buffer pH 6.5, 0.2 mg/mL, 35° C.; for helicity (CD spectra): absence of 10 mM DPC; for negative CD signal between 200 nm and 230 nm: presence of DPC (10 mM). Here is the method: Cysteine Disulfide Constrained Analogs of Lacripep™ (SEQ ID NO:1) were synthesized with N-terminal acetylation and C-terminal amidation as an acetate salt. The compounds were reconstituted in 10 mM sodium citrate buffer, pH 6.5 for circular dichroism, with or without 10 mM DPC. The resulting citric acid buffered solutions were tested for circular dichroism.
as §1

Series [3] in a line: Circular dichroism of Lacripep oleate salt vs acetate salt in citrate buffer (Example 3). The following applies: CD, 0.2 mg/mL, 10 mM sodium citrate buffer pH 6.5, 35° C. The procedure: Lacripep™ (SEQ ID NO:1) was synthesized either without or with N-terminal acetylation and C-terminal amidation as an acetate salt. The compounds were reconstituted in 10 mM sodium citrate buffer, pH 6.5 for circular dichroism. Lacripep™ synthesized either without or with N-terminal acetylation and C-terminal amidation as an acetate salt was converted to an oleate salt by dissolving 1 equivalent of the Lacripep™ acetate salt and 4 equivalents of oleic acid (one oleic acid per lysine residue in Lacripep™) in a mixture of water buffered with citric acid to pH 6.5. The resulting solutions were then flash frozen and lyophilized under vacuum to remove the more volatile acetic acid. The lyophilized powder is suspended in water and the pH is adjusted to between 6.2 to 6.8 with citric acid and sodium citrate and the osmolality to between 250 to 350 mOsm/kg. […]
CD spectra were obtained using the Jasco 810 CD/ORD with Fluorescence Monochrometer in a 1 mm quartz cell from Starna Cells, Inc. Spectra were obtained at 35° C. from 250 nm to 190 nm in continuous scanning mode (scanning speed, 100 nm/min; data pitch, 0.1 nm; bandwidth, 1 nm; response time, 4 s) with a nitrogen flow rate of 100 mL/min. […]

Series [4] can be described thus: Circular dichroism of Lacripep acetate salt vs dodecylphosphocholine form in phosphate buffer (Example 2). The settings on record: CD, 0.2 mg/ml; for alpha helicity: 10 mM phosphate, 137 mM NaCl, 2.7 mM KCl buffer pH 7.4, 35° C., dpC forms with 10 mM dodecylphosphocholine; for irregular: phosphate buffer pH 7.4, 35° C., 10 mM dodecylphosphocholine. Here is the method:
Lacripep™ (SEQ ID NO:1) was synthesized either without (unmodified, KQFIENGSEFAQKLLKKFS) or with (modified, Ac-KQFIENGSEFAQKLLKKFS-NH2)N-terminal acetylation and C-terminal amidation as an acetate salt. The compounds (0.2 mg/ml) were reconstituted in 10 mM phosphate, 137 mM NaCl, 2.7 mM KCl buffer, pH 7.4 with 10 mM dodecylphosphocholine for circular dichroism. CD spectra were obtained using the Jasco 810 CD/ORD with Fluorescence Monochrometer in a 1 mm quartz cell from Starna Cells, Inc. Spectra were obtained at 35° C. from 250 nm to 190 nm in continuous scanning mode (scanning speed, 100 nm/min; data pitch, 0.1 nm; bandwidth, 1 nm; response time, 4 s) with a nitrogen flow rate of 100 mL/min. An average of 3 spectra were obtained for each sample (N=3). Analysis of the dichroism spectra can use methods known in the art, including, DichroWeb: On-line analysis for protein Circular Dichroism spectra; Whitmore, L. and Wallace, B. A. (2008) Biopolymers 89: 392-400; Whitmore, L. and Wallace, B. A. (2004) Nucleic Acids Research 32: W668-673, each of which is incorporated by reference herein in its entirety.
A general note: CD spectra are sensitive to the conformation of chiral molecules.

Bridge positions count the residues as written; N and C are the ends. Square brackets hold non-standard residues; d marks the D form. Ends that are not written are not given here. 2‑(7-octenyl)alanine = olefinic alpha-amino acid with 7-octenyl side chain, staple residue; 2‑(4-pentenyl)alanine = 2-(4-pentenyl)alanine

On to “Ac-KQ [2-(7-octenyl) alanine]-IENGSE-[2-(4-pentenyl) alanine]-AQKLLKKFS-NH2 (Ac-KQ[2‑(7-octenyl)alanine]IENGSE[2‑(4-pentenyl)alanine]AQKLLKKFS-NH2; staple 3-10; listed as Homo sapiens) [SEQ ID NO: 59]”, for which the “negative CD signal between 200 nm and 230 nm” value in series [1] (presence of 10 mM DPC) is “approximately −50 Δε”.
With “Ac-KQF C(S-)EN C(S-)SE FAQ KLL KKF S-NH2 (Ac-KQFCENCSEFAQKLLKKFS-NH2; disulfide 4-7; SMILES CC(=O)N[C@@H](CCCCN)C(=O)N[C@@H](CCC(N)=O)C(=O)N[C@@H](Cc1ccccc1)C(=O)N[C@H]1CSSC[C@@H](C(=O)N[C@@H](CO)C(=O)N[C@@H](CCC(=O)O)C(=O)N[C@@H](Cc2ccccc2)C(=O)N[C@@H](C)C(=O)N[C@@H](CCC(N)=O)C(=O)N[C@@H](CCCCN)C(=O)N[C@@H](CC(C)C)C(=O)N[C@@H](CC(C)C)C(=O)N[C@@H](CCCCN)C(=O)N[C@@H](CCCCN)C(=O)N[C@@H](Cc2ccccc2)C(=O)N[C@@H](CO)C(N)=O)NC(=O)[C@H](CC(N)=O)NC(=O)[C@H](CCC(=O)O)NC1=O; listed as Homo sapiens) [SEQ ID NO: 72]”, in series [2], the “helicity (CD spectra)” value was “significant helicity”; the “negative CD signal between 200 nm and 230 nm” value is listed as −20 to −30 Δε.
“Ac-KQF IEN C(S-)SE C(S-)AQ KLL KKF S-NH2 (Ac-KQFIENCSECAQKLLKKFS-NH2; bridge 7-10; not fully specified (bridges); printed as Ac-KQF IEN C(S-)SE C(S-)AQ KLL KKF S-NH2; listed as Homo sapiens) [SEQ ID NO: 70]”: the “helicity (CD spectra)” value in series [2] is given as “significant helicity”.
As to “Ac-KQF IEN GSE FAQ KC(S-)L KC(S-)F S-NH2 (Ac-KQFIENGSEFAQKCLKCFS-NH2; disulfide 14-17; SMILES CC[C@H](C)[C@H](NC(=O)[C@H](Cc1ccccc1)NC(=O)[C@H](CCC(N)=O)NC(=O)[C@H](CCCCN)NC(C)=O)C(=O)N[C@@H](CCC(=O)O)C(=O)N[C@@H](CC(N)=O)C(=O)NCC(=O)N[C@@H](CO)C(=O)N[C@@H](CCC(=O)O)C(=O)N[C@@H](Cc1ccccc1)C(=O)N[C@@H](C)C(=O)N[C@@H](CCC(N)=O)C(=O)N[C@@H](CCCCN)C(=O)N[C@H]1CSSC[C@@H](C(=O)N[C@@H](Cc2ccccc2)C(=O)N[C@@H](CO)C(N)=O)NC(=O)[C@H](CCCCN)NC(=O)[C@H](CC(C)C)NC1=O; listed as Homo sapiens) [SEQ ID NO: 69]”, in series [2], the “helicity (CD spectra)” value was “significant helicity”; the “negative CD signal between 200 nm and 230 nm” value was −5 to −10 Δε.
Turning to “Ac-KQFIENGSEFAQKLLKKFS-NH2 (listed as Homo sapiens) [Lacripep]”, the results for the “helicity (CD spectra)” value in series [2] and in series [1] (absence of 10 mM DPC) were “significant helicity” and “little helicity”, respectively.
Regarding “Ac-KQFIENGSEFAQKLLKKFS-NH2 [modified acetate salt form] (also: acetate salt) [Lacripep with N-terminal acetylation and C-terminal amidation, acetate salt]”, the alpha helicity in series [3] is 29%; in series [4], 28%.
In the case of “Ac-KQFIENGSEFAQKLLKKFS-NH2 [modified dpC form] (also: dpC form) [terminally modified Lacripep constrained with 10 mM dodecylphosphocholine]”, in series [4], the alpha helicity is on record as 100% and the irregular is listed as 0%.
Take “KQFIENGSEFAQKLLKKFS [unmodified acetate salt form] (not fully specified (N-terminus, C-terminus); also: acetate salt) [Lacripep without N-terminal acetylation and C-terminal amidation, acetate salt]”: the alpha helicity in series [3] came to 28%; in series [4], 27%.
Take “KQFIENGSEFAQKLLKKFS [unmodified dpC form] (not fully specified (N-terminus, C-terminus)) [unmodified Lacripep constrained with 10 mM dodecylphosphocholine]”: in series [4], the alpha helicity was 92% and the irregular turned out to be 8%.
